Source: CN112341541A (INST FOR VIRAL DISEASE CONTROL AND PREVENTION CHINESE …, dated 2021)

Target: T1, 新型冠状病毒S1蛋白 (纯化) (SARS-CoV-2, UniProt P0DTC2 14-685)
T1 construct: domain: S1
Experiment: SPR, BIAcore 8000, purified S1 protein coupled to the chip, 1:1 binding fit

B1: 人源抗新冠病毒中和性抗体nCoV-163 全抗体IgG (antibody, V domains shown)
VH: EVQLVESGGGLVQPGGSLRLSCEASEIIVNRNYMNWVRQAPGKGLEWVSIIYPGGSTFYADSVKGRFTISRDNSKNTMYLQMNSLRAEDTAVYYCARSYGDFYVDFWGQGTLVTVSS
VL: EIVLTQSPVTLSLSPGERATLSCRASQSVSSSYLAWYQQKPGQAPRLLIYGASSRATGIPDRFSGSGSGTDFTLTISRLEPEDFAVYYCQQHGRTFGQGTKVEIKR
notes: also called nCoV-163号抗体
Kd: < 4.88 pM
